Measurements published in patent US20200048328A1 (Bristol-Myers Squibb, published 2020).

Assays:
[1] = target: T1, human PCSK9 (human, UniProt Q8NBP7 31-692); assay: BLI (Octet), biotinylated PCSK9 on tips, no HSA
T1 construct: also called hPCSK9; huPCSK9
From the text: (§1) Binding curves were globally fit to produce values for KD, kₒₙ, and koff.

[2] = target: T1, human PCSK9; assay: PCSK9:LDLR FRET, competition
[3] = target: T1, human PCSK9; assay: BLI (Octet), biotinylated PCSK9 on tips, tandem in complex with excess HSA
From the text: as §1

[4] = target: T2, mouse serum albumin (mouse, UniProt P07724 25-608); assay: Albumin KD (37° C.), summary table; mouse serum albumin (third value of the list)
T2 construct: also called MSA; MuSA
T2 sequence (P07724 25-608 limits assumed): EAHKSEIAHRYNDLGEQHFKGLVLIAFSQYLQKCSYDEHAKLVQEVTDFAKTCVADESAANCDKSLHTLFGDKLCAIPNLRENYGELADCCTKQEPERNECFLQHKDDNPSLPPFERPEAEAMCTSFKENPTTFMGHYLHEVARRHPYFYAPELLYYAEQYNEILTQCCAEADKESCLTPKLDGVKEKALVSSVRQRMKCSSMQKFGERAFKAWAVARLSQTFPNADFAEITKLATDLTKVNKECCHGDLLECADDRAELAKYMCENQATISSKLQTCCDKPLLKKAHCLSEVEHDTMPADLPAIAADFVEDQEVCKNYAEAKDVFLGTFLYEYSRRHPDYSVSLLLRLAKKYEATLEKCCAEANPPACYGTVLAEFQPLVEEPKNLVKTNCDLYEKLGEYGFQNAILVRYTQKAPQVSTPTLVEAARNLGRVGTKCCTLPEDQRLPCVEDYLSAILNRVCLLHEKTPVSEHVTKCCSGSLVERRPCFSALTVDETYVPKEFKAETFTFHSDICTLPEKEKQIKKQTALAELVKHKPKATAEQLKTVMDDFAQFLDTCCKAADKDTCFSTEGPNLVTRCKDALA

[5] = target: T1, human PCSK9; assay: PCSK9:EGFA FRET 2, competition
[6] = target: T1, human PCSK9; assay: PCSK9:EGFA FRET human, summary table
[7] = target: T1, human PCSK9; assay: PCSK9:EGFA FRET 1, competition
[8] = target: T2, mouse serum albumin; assay: SPR, albumin immobilized, acetate pH 5.5
[9] = target: T3, rhesus serum albumin (rhesus, UniProt Q28522 17-600); assay: SPR, albumin immobilized, acetate pH 5.5
T3 construct: also called RhSA; Rh-SA
T3 sequence (Q28522 17-600 limits assumed): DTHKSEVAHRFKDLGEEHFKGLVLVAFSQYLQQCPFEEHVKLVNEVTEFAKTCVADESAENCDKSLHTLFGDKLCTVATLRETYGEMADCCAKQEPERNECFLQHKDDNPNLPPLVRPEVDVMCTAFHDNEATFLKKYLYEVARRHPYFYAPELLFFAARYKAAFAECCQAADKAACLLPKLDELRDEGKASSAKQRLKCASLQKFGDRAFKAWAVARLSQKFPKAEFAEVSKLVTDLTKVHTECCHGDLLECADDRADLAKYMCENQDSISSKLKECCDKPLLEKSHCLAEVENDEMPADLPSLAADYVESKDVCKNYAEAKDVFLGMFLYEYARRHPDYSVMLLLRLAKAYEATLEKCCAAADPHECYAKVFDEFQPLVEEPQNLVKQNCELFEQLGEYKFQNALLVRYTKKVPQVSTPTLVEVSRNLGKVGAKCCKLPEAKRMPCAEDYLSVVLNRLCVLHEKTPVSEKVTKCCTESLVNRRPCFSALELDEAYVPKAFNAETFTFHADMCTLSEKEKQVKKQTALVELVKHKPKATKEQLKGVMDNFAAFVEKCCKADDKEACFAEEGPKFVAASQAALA

[10] = target: T4, human serum albumin (human, UniProt P02768 25-609); assay: SPR, albumin immobilized, acetate pH 5.5
T4 construct: immobilized on chips or coated on plates elsewhere; also called HSA; HuSA

[11] = target: T5, rat serum albumin (rat, UniProt P02770 25-608); assay: Albumin KD (37° C.), summary table; rat serum albumin (fourth value of the list)
T5 construct: also called Rat SA; RSA
T5 sequence (P02770 25-608 limits assumed): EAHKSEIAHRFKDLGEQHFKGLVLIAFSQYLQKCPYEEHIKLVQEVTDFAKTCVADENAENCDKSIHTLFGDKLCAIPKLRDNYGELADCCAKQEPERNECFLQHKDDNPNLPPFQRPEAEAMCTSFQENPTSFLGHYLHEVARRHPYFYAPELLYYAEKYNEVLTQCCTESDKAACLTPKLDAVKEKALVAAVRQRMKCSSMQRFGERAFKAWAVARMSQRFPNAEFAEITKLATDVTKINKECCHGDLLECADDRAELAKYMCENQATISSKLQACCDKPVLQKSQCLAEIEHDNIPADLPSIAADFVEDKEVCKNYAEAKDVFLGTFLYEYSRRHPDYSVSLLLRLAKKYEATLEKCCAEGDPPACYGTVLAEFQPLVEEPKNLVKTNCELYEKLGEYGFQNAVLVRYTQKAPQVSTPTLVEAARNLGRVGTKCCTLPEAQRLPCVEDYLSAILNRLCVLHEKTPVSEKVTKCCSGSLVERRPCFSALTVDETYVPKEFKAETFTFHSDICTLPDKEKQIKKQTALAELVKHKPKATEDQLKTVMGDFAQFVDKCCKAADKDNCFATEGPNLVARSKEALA

[12] = target: T6, cynomolgus serum albumin (cynomolgus, UniProt A2V9Z4 25-608); assay: Albumin KD (37° C.), summary table; cynomolgus serum albumin (second value in the cell)
T6 construct: also called cynoSA; CySA
T6 sequence (A2V9Z4 25-608 limits assumed): as the sequence (Q28522 17-600 limits assumed) above

[13] = target: T2, mouse serum albumin; assay: SPR, albumin immobilized, acetate pH 7.4
[14] = target: T3, rhesus serum albumin; assay: SPR, albumin immobilized, acetate pH 7.4
[15] = target: T4, human serum albumin; assay: SPR, albumin immobilized, acetate pH 7.4
[16] = target: T2, mouse serum albumin; assay: SPR, albumin immobilized;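 also: biacore SPR with human, rhesus or mouse serum albumin amine-coupled to the chip (about 1200 RU), 3 min association, 6-10 min dissociation, reference-subtracted traces fitted with a 1:1 model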
Method: (§2) To determine the kinetics of binding to human, rhesus, and mouse serum albumin, as well as whether binding was retained at both physiological and endosomal pHs, the respective serum albumins were immobilized on a Biacore CMS chip to a surface density of ˜1200 RU using standard NHS/EDC coupling. […] Kinetic measurements were carried out using a 3 min association and 6-10 min dissociation phase. Kinetic traces of reference-subtracted sensorgrams were fit to a 1:1 binding model using the Biaevaluation software.

[17] = target: T3, rhesus serum albumin; assay: SPR, albumin immobilized;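 also: biacore SPR with human, rhesus or mouse serum albumin amine-coupled to the chip (about 1200 RU), 3 min association, 6-10 min dissociation, reference-subtracted traces fitted with a 1:1 model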
Method: as §2

[18] = target: T4, human serum albumin; assay: SPR, albumin immobilized;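 also: biacore SPR with human, rhesus or mouse serum albumin amine-coupled to the chip (about 1200 RU), 3 min association, 6-10 min dissociation, reference-subtracted traces fitted with a 1:1 model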
Method: as §2

[19] = target: T4, human serum albumin; assay: Albumin KD (37° C.), summary table; human serum albumin (first value in the cell)
[20] = target: T2, mouse serum albumin; assay: SPR, albumin immobilized, HBSP pH 7.4
[21] = target: T3, rhesus serum albumin; assay: SPR, albumin immobilized, HBSP pH 7.4
[22] = target: T4, human serum albumin; assay: SPR, albumin immobilized, HBSP pH 7.4
[23] = target: T2, mouse serum albumin; assay: direct binding ELISA, albumin coated
Method: (§3) Cross-species albumin binding was determined using the ELISA method described above.

[24] = target: T3, rhesus serum albumin; assay: direct binding ELISA, albumin coated
Method: as §3

[25] = target: T4, human serum albumin; assay: direct binding ELISA, albumin coated
Method: as §3

B1: PCSK9-PKE2 tandem Adnectin w/ his tag 4472_C06 (designed binder)
chain: MGVSDVPRDLEVVAATPTSLLISWDAPAEGYGYYRITYGETGGNSPVQEFTVPVSKGTATISGLKPGVDYTITVYAVEFDFPGAGYYHRPISINYRTEPSTPPTPSPSTPPTPSPSGVSDVPRDLEVVAATPTSLLISWDAPAVTVRYYRITYGREVQKYSDLGPLYIYQEFTVPGSKSTATISGLKPGVDYTITVYAVTGSGESPASSKPISINYRTEHHHHHH
notes: also called ATI-1574; ADX_4472_C06
Kd [1]: 0.515 nM
koff [1]: 0.000168 s⁻¹
kon [1]: 336000 M⁻¹ s⁻¹
IC50 [2]: 1.4 nM
Kd [3]: 1.55 nM
koff [3]: 0.000305 s⁻¹
kon [3]: 197000 M⁻¹ s⁻¹
Kd [4]: 43 nM
IC50 [5]: 3.09 nM
IC50 [6]: 1.5 nM
IC50 [7]: 9.18 nM
Kd [8]: 123 nM
koff [8]: 0.00161 s⁻¹
kon [8]: 13100 M⁻¹ s⁻¹
Kd [9]: 97.5 nM
koff [9]: 0.000815 s⁻¹
kon [9]: 8360 M⁻¹ s⁻¹
Kd [10]: 38.2 nM
koff [10]: 0.000466 s⁻¹
kon [10]: 12200 M⁻¹ s⁻¹
Kd [11]: 200 nM
Kd [12]: 51 nM
Kd [13]: 34.8 nM
koff [13]: 0.000375 s⁻¹
kon [13]: 10800 M⁻¹ s⁻¹
Kd [14]: 80.7 nM
koff [14]: 0.000364 s⁻¹
kon [14]: 4510 M⁻¹ s⁻¹
Kd [15]: 74.7 nM
koff [15]: 0.000325 s⁻¹
kon [15]: 4350 M⁻¹ s⁻¹
Kd [16]: 26.1 nM
koff [16]: 0.000301 s⁻¹
kon [16]: 11500 M⁻¹ s⁻¹
Kd [17]: 77 nM
koff [17]: 0.000337 s⁻¹
kon [17]: 4380 M⁻¹ s⁻¹
Kd [18]: 73.7 nM
koff [18]: 0.000289 s⁻¹
kon [18]: 3920 M⁻¹ s⁻¹
Kd [19]: 57 nM
Kd [20]: 28.2 nM
koff [20]: 0.000336 s⁻¹
kon [20]: 11900 M⁻¹ s⁻¹
Kd [21]: 78.9 nM
koff [21]: 0.000305 s⁻¹
kon [21]: 3860 M⁻¹ s⁻¹
Kd [22]: 72 nM
koff [22]: 0.000258 s⁻¹
kon [22]: 3580 M⁻¹ s⁻¹
EC50 [23]: 15.6 nM
EC50 [24]: 131 nM
EC50 [25]: 184 nM
